Common to all, as to assay: IEDB peptide-MHC binding, purified MHC/competitive/radioactivity; ≥ and ≤ were set here for values at or beyond the usual limits of such assays
Test [1] has as its target HLA-A*02:01.
The target in test [2] is HLA-A*02:02.
The target in test [3] is HLA-A*02:06.
In test [4] the target is HLA-A*02:03.
The target of test [5] is HLA-A*68:02.
[6] abbreviates: source organism: Vaccinia virus WR.
Setting [7] is: source organism: Hepacivirus hominis.

The term IC50 denotes the midpoint of a concentration-inhibition curve. On to IIFWFSLEI, for which the concentration for half-maximal inhibition (IC50) in test [1] (source organism: SARS-CoV1) was 9 nM; in test [2] (source organism: SARS-CoV1), 1.8 nM; in test [3] (source organism: SARS-CoV1), 4.6 nM; in test [4] (source organism: SARS-CoV1), 87 nM; in test [5] (source organism: SARS-CoV1), 520 nM.

IIMAINVFT: the 50% inhibitory concentration (IC50) worked out at 27 nM in test [1] (setting [6]); 39 nM in test [2] (setting [6]); 10 nM in test [3] (setting [6]); 180 nM in test [4] (setting [6]); 84 nM in test [5] (setting [6]).

In the case of IINSVSIILA, the IC50 in test [1] (setting [6]) was 895 nM; in test [2] (setting [6]), 719 nM; in test [3] (setting [6]), 957 nM; in test [4] (setting [6]), 890 nM; in test [5] (setting [6]), 154 nM.

IIPFIAYFVL: the IC50 worked out at 991 nM in test [1] (setting [6]); 715 nM in test [2] (setting [6]); 852 nM in test [3] (setting [6]); 4730 nM in test [4] (setting [6]); 76 nM in test [5] (setting [6]).

With IISLFYTFAI, the IC50 in test [1] (setting [6]) was 290 nM; in test [2] (setting [6]), 108 nM; in test [3] (setting [6]) it was 146 nM; in test [4] (setting [6]), 44 nM; in test [5] (setting [6]), 144 nM.

For IISSKQYPA, the IC50 is 410 nM in test [1] (setting [6]); 164 nM in test [2] (setting [6]); 1160 nM in test [3] (setting [6]); 612 nM in test [4] (setting [6]); 3580 nM in test [5] (setting [6]).

As for IISYIILFI, the IC50 in test [1] (setting [6]) turned out to be 12 nM; in test [2] (setting [6]) it was 2.8 nM; in test [3] (setting [6]) it was 27 nM; in test [4] (setting [6]), 59 nM; in test [5] (setting [6]), 5.7 nM.

With IISYIILFIL, the concentration for half-maximal inhibition (IC50) was determined as 580 nM in test [1] (setting [6]); 66 nM in test [2] (setting [6]); 3930 nM in test [3] (setting [6]); 489 nM in test [4] (setting [6]); 2090 nM in test [5] (setting [6]).

With IITILQDIV, the half-inhibitory concentration (IC50) was determined as 109 nM in test [1] (setting [6]); 827 nM in test [2] (setting [6]); 658 nM in test [3] (setting [6]); 666 nM in test [4] (setting [6]); 1070 nM in test [5] (setting [6]).

In the case of IIYSKAGNIL, the IC50 in test [1] (setting [6]) came to 542 nM; in test [2] (setting [6]), 8.5 nM; in test [3] (setting [6]), 342 nM; in test [4] (setting [6]), 110 nM; in test [5] (setting [6]), 3920 nM.

Take ILASFSAST: the IC50 in test [1] (source organism: SARS-CoV1) is 16 nM; in test [2] (source organism: SARS-CoV1) it was 1.6 nM; in test [3] (source organism: SARS-CoV1), 457 nM; in test [4] (source organism: SARS-CoV1), 5.3 nM; in test [5] (source organism: SARS-CoV1), 1220 nM.

Take ILATLNTLI: the IC50 was 15 nM in test [1] (setting [6]); 0.41 nM in test [2] (setting [6]); 40 nM in test [3] (setting [6]); 0.23 nM in test [4] (setting [6]); 2310 nM in test [5] (setting [6]).

With ILATLNTLIT, the IC50 in test [1] (setting [6]) is 443 nM; in test [2] (setting [6]), 7 nM; in test [3] (setting [6]), 629 nM; in test [4] (setting [6]), 12 nM; in test [5] (setting [6]), 1860 nM.

Take ILEYLYIMRV: the half-inhibitory concentration (IC50) in test [1] (setting [6]) came to 30 nM; in test [2] (setting [6]), 74 nM; in test [3] (setting [6]), 134 nM; in test [4] (setting [6]), 83 nM; in test [5] (setting [6]) it was 1350 nM.

For the sequence ILFILFFAYV, the IC50 in test [1] (setting [6]) turned out to be 139 nM; in test [2] (setting [6]), 132 nM; in test [3] (setting [6]) it was 1210 nM; in test [4] (setting [6]), 366 nM; in test [5] (setting [6]), 320 nM.

Regarding ILISLINSLV, the 50% inhibitory concentration (IC50) amounted to 83 nM in test [1] (setting [6]); 23 nM in test [2] (setting [6]); 151 nM in test [3] (setting [6]); 3.1 nM in test [4] (setting [6]); 141 nM in test [5] (setting [6]).

Regarding ILLILSCIFA, the concentration for half-maximal inhibition (IC50) was 21 nM in test [1] (setting [6]); 448 nM in test [2] (setting [6]); 492 nM in test [3] (setting [6]); 307 nM in test [4] (setting [6]); 2750 nM in test [5] (setting [6]).

Take ILMTHFFSI: the IC50 in test [1] (setting [7]) was 1.3 nM; in test [2] (setting [7]), 6.7 nM; in test [3] (setting [7]), 4.7 nM; in test [4] (setting [7]), 1 nM; in test [5] (setting [7]) it was 185 nM.

With ILMTHFFSIL, the IC50 worked out at 44 nM in test [1] (setting [7]); 35 nM in test [2] (setting [7]); 101 nM in test [3] (setting [7]); 69 nM in test [4] (setting [7]); 3970 nM in test [5] (setting [7]).

With ILPDKIDGL, the concentration for half-maximal inhibition (IC50) amounted to 62 nM in test [1] (setting [6]); 1 nM in test [2] (setting [6]); 43 nM in test [3] (setting [6]); 3.5 nM in test [4] (setting [6]); 4000 nM in test [5] (setting [6]).

In the case of ILQMREIIT, the IC50 in test [1] (setting [6]) is 380 nM; in test [2] (setting [6]) it was 4100 nM; in test [3] (setting [6]) it was 1230 nM; in test [4] (setting [6]), 1340 nM; in test [5] (setting [6]) it was 1160 nM.

Take ILRNYLRLYI: the half-inhibitory concentration (IC50) in test [1] (setting [6]) is 1 nM; in test [2] (setting [6]), 0.39 nM; in test [3] (setting [6]), 65 nM; in test [4] (setting [6]), 0.9 nM; in test [5] (setting [6]) it was 2650 nM.

ILSCIFAFI: the half-inhibitory concentration (IC50) in test [1] (setting [6]) amounted to 1.8 nM; in test [2] (setting [6]), 0.79 nM; in test [3] (setting [6]), 8.8 nM; in test [4] (setting [6]), 3.1 nM; in test [5] (setting [6]), 1.3 nM.

(Values after the Immune Epitope Database (IEDB).)
